This is an account of results in publication PMC2932750 (Biochemistry, 2010).

Where no end group is shown, it is not given here.

T1 sequence (P29317 24-537): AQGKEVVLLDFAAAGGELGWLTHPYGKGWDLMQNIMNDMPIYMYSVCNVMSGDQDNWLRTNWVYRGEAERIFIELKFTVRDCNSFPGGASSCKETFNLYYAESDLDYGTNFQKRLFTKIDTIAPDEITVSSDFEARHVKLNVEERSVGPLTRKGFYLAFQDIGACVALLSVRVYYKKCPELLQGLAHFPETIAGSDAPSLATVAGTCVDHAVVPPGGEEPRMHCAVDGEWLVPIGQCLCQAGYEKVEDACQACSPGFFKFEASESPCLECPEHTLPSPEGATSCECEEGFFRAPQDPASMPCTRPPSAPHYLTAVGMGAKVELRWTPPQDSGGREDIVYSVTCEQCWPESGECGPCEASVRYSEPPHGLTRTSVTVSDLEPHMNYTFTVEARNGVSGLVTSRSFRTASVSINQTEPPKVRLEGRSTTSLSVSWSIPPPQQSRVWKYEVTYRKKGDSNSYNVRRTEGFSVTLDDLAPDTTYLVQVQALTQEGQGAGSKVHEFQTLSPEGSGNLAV

The first assay concerns the target T1, EphA2 ligand-binding domain fused to human Fc (EphA2 Fc) (UniProt P29317 24-537). Nature of the assay: ELISA.
Turning to YSAAPDSVPMMS (C-terminal amide if made in house) [Ala-4 peptide (YSA-12mer with alanine at position 4)], the IC50 (in general, the point on the concentration scale where inhibition reaches its midpoint) is more than 100 µM.

A further assay concerns the target T1, EphA2 ligand-binding domain fused to …. Nature of the assay: ELISA. This is another data set of the same source. On the technique in general: In an ELISA, binding on a coated surface is turned into a signal by an enzyme label.
YSAYPDSVPC (free C-terminal cysteine thiol; C-terminal amide if made in house) [YSA-C-10mer (monomeric)] returned an IC50 of 5.2 µM.
Same read-out and setting: next, SWLAYPDSVPMMS (C-terminal amide if made in house) [SWLA-13mer]: 6.5 µM.
On to SWLAYPDSVPC (free C-terminal cysteine thiol; C-terminal amide if made in house) [SWLA-C-11mer], for which the IC50 stood at 3.7 µM.
Same read-out and setting: the same measure for YSSYPDSVPMMS (C-terminal amide if made in house) [YSS-12mer]: more than 100 µM.
YSAFPDSVPMMS (C-terminal amide if made in house) [YSAF-12mer] gave an IC50 of 47 µM.
Turning to SWLAYPDSVP (C-terminal amide if made in house) [SWLA-10mer], the IC50 is 39 µM.
The molecule YSAYPDSVPC (also: homodimer, disulfide between C-terminal cysteines of the two chains) [dimerized YSA-C-10mer] returned an IC50 of 1.8 µM.
